The target of assay [1] is H1 HA A/South Carolina/1/1918 (H1N1) (influenza A virus, UniProt Q9WFX3 18-529). As to the kind of experiment: BLI, biotinylated HA on streptavidin sensor.
In assay [2] the target is H5 HA A/Indonesia/05/2005 (H5N1), recombinant (influenza A virus). As to the kind of experiment: ELISA on coated recombinant HA. Background: In an ELISA, binding on a coated surface is turned into a signal by an enzyme label.
The target of assay [3] is A/Turkey/Ontario/6118/1967 (Influenza A virus). As to the kind of experiment: ELISA on coated recombinant HA.
Assay [4] addresses T1, H3 HA A/Hong Kong/1/1968 (H3N2), recombinant soluble trimer (influenza A virus, UniProt Q91MA7 17-530). The assay is described as follows: ELISA on coated recombinant HA.
For assay [5], the target named is T2, H1 HA A/Texas/36/1991 (H1N1), recombinant soluble trimer (influenza A virus).
T2 construct: extracellular domain
The assay is described as follows: ELISA on coated recombinant HA.

Assay [6] concerns the target H12 HA A/duck/Alberta/60/1976, recombinant (influenza A virus). The assay is described as follows: ELISA on coated recombinant HA.
Assay [7] addresses T3, H3 HA A/Texas/50/2012, recombinant soluble trimer (influenza A virus).
T3 construct: extracellular domain
As to the kind of experiment: ELISA on coated recombinant HA.

The target of assay [8] is H7 HA A/New York/107/2003, recombinant (influenza A virus). As to the kind of experiment: ELISA on coated recombinant HA.
For assay [9], the target named is H5 HA A/Vietnam/1203/2004 (H5N1), recombinant (influenza A virus). The assay is described as follows: ELISA on coated recombinant HA.
The target of the next assay is A/Puerto Rico/8/1934 (Influenza A virus). The assay is described as follows: ELISA on coated recombinant HA.
Assay [10] deals with H2 HA A/Singapore/1/1957, recombinant soluble trimer (influenza A virus). The assay is described as follows: ELISA on coated recombinant HA.
In assay [11] the target is A/Duck/Czechoslovakia/1956 (Influenza A virus). As to the kind of experiment: ELISA on coated recombinant HA.
In assay [12] the target is T1, H3 HA A/Hong Kong/1/1968 (H3N2), …. The assay is described as follows: ELISA on coated recombinant HA. This is another data set of the same source.
The target is the same in assay [13]. As to the kind of experiment: BLI, biotinylated HA on streptavidin sensor.
Assay [14] concerns the target T4, eHead_H1Solomon (wild-type H1 head domain monomer) (influenza A virus, UniProt B4URD6 65-276).
T4 chain: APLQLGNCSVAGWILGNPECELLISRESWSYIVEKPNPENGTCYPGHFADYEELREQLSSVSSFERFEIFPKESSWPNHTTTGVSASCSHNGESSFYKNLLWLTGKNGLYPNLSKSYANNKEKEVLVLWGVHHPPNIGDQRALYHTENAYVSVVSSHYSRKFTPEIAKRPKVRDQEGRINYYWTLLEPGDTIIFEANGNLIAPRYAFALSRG
As to the kind of experiment: SPR. (In general: Surface plasmon resonance follows binding to a sensor surface in real time, without labels.)

The target of assay [15] is T5, eHead-H3HK68_v1 (wild-type H3 head domain monomer) (influenza A virus, UniProt Q91MA7 53-335). The assay is described as follows: SPR.
Assay [16] addresses T4, eHead_H1Solomon (wild-type H1 head …). The assay is described as follows: SPR (Example 4, Table E).
The target in assay [17] is T5, eHead-H3HK68_v1 (wild-type H3 head …). The assay is described as follows: SPR (Example 4, Table E).

Like-named read-outs stand apart in the source and are kept apart here.

B1: rFluA-20 Fab (Fab, V domains shown)
VH: QVQLQESGPGLVKPSETLSLTCSVSGVSVTSDIYYWTWIRQPPGKGLEWIGYIFYNGDTNYNPSLKSRVTMSIDTSKNEFSLRLTSVTAADTAVYFCARGTEDLGYCSSGSCPNHWGQGTLVTVSS
VL: DIQMTQSPSSLSASIGDRVTITCRPSQNIRSFLNWFQHKPGKAPKLLIYAASNLQSGVPSRFSGSGSGTEFTLTIRSLQPEDFATYYCQQSYNTPPTFGQGTKVEIK
By Kd is commonly meant a measure of binding affinity in units of concentration. In assay [1], B1 came in with a Kd of 46 nM.

B2: mAb H5.31 (hybridoma IgG) (antibody, V domains shown)
VH: EVQLVQSGGGLVQPGGSLRLSCEASRFTSSSYWITWVRQAPGKGLEWVANIKQDGSEKYFVDSVKGRFTISRDNASNSLYLQMSSLRAEDTAVYYCARGFLERLLLGRQGAYYYGMDVWGQGTTVTVSS
VL: DIQMTQSPSSLSASVGDRVTMTCRASQSISSSLNWYQQKPGKAPKLLIYAASNLQSGVPSRFSGSGSGTDFTLTISSLQPEDFATYYCQQSYTMPPELTFGGGTKVQIK
One may read the EC50 as the concentration needed to bring the measured effect to its halfway point. Turning to B2, the EC50 in assay [2] was more than 2.5 µg/mL; in assay [3], 4 ng/mL; in assay [4], 9 ng/mL; in assay [5], 0.006 µg/mL; in [6], 0.002 µg/mL; in assay [7] it was 0.936 µg/mL. The EC50 is more than 2.5 µg/mL in assay [8]; 0.006 µg/mL in assay [9]; 4 ng/mL with A/Puerto Rico/8/1934; 4 ng/mL in assay [10]; 0.006 µg/mL in [11].

B3: mAb H5.28 (hybridoma IgG) (antibody, V domains shown)
VH: EVQLVESGGGLVQPGGSLRLSCAASGFTFSTYWMTWVRQAPGKGLEWVANINQDGGEKYFVDSVKGRFTISRDNAKNSLFLQMNTLRAEDTAVYYCARGFLERLLLGRQGAYYYGMDVWGQGTTVTVSS
VL: DIQMTQSPSSLSASVGDRVSMTCRASQIISSSLNWYQQKPGKAPKLLIYAASNLQSGVPSRFSGSGSGTDFTLTISSLQPEDFATYYCQQSYSTPPELTFGGGTKVEIK
As for B3, the EC50 in assay [2] is more than 2.5 µg/mL; in [3] it was more than 2500 ng/mL; in assay [4], more than 2500 ng/mL; in assay [5], 0.022 µg/mL; in [6], 0.269 µg/mL; in assay [7], more than 2.5 µg/mL. The EC50 was more than 2.5 µg/mL in assay [8]; 0.182 µg/mL in assay [9]; 10 ng/mL with A/Puerto Rico/8/1934; 14 ng/mL in assay [10]; 0.021 µg/mL in assay [11].

B4: FluA-20-UCA IgG (unmutated common ancestor of FluA-20) (antibody, V domains shown)
VH: QVQLQESGPGLVKPSETLSLTCTVSGGSVSSGSYYWSWIRQPPGKGLEWIGYIYYSGSTNYNPSLKSRVTISVDTSKNQFSLKLSSVTAADTAVYYCARGTEDLGYCSGGSCPNHWGQGTLVTVSS
VL: not shown
With B4, the EC50 in assay [12] was 0.021 µg/mL.

B5: FluA-20 UCA Fab (Fab, V domains shown)
VH: QVQLQESGPGLVKPSETLSLTCTVSGGSVSSGSYYWSWIRQPPGKGLEWIGYIYYSGSTNYNPSLKSRVTISVDTSKNQFSLKLSSVTAADTAVYYCARGTEDLGYCSGGSCPNHWGQGTLVTVSS
VL: not shown
In the case of B5, the values for the Kd in assay [13] and in assay [1] were 486 nM and 937 nM, respectively.

B6: FluA20_UCA (as used in the SPR experiments of Example 4) (antibody, V domains shown)
VH: QVQLQESGPGLVKPSETLSLTCTVSGGSVSSGSYYWSWIRQPPGKGLEWIGYIYYSGSTNYNPSLKSRVTISVDTSKNQFSLKLSSVTAADTAVYYCARGTEDLGYCSGGSCPNHWGQGTLVTVSS
VL: not shown
For B6, the Kd in assay [14] is 500 nM; in [15], 530 nM; in assay [16] it was approximately 500 nM; in [17], approximately 500 nM.
